From patent US20210364527A1

Target: FA peptide (N-terminal phenylalanine, penultimate alanine; rest of sequence not given)
Assay: fluorescence polarization

B1: PS611 (Bis-atClpS2-V1, Linker 3) (designed binder)
chain: MSDSPVDLKPKPKVKPKLERPKLYKVMLLNDDYTPMSFVTVVLKAVFRMSEDTGRRVMMTAHRFGSAVVVVCERDIAETKAKEATDLGKEAGFPLMFTTEPEEGSAGSAAGSGEFGSAGSAAGSGEFGSAGSAAGSGEFMSDSPVDLKPKPKVKPKLERPKLYKVMLLNDDYTPMSFVTVVLKAVFRMSEDTGRRVMMTAHRFGSAVVVVCERDIAETKAKEATDLGKEAGFPLMFTTEPEEGHHHHHHHHHHGGGSGGGSGGGSGLNDFFEAQKIEWHEGGGSGGGSGGGSGLNDFFEAQKIEWHE
Kd: 137 nM

B2: PS609 (Bis-atClpS2-V1, Linker 1) (designed binder)
chain: MSDSPVDLKPKPKVKPKLERPKLYKVMLLNDDYTPMSFVTVVLKAVFRMSEDTGRRVMMTAHRFGSAVVVVCERDIAETKAKEATDLGKEAGFPLMFTTEPEEGGGSGGGSGGGSGMSDSPVDLKPKPKVKPKLERPKLYKVMLLNDDYTPMSFVTVVLKAVFRMSEDTGRRVMMTAHRFGSAVVVVCERDIAETKAKEATDLGKEAGFPLMFTTEPEEGHHHHHHHHHHGGGSGGGSGGGSGLNDFFEAQKIEWHEGGGSGGGSGGGSGLNDFFEAQKIEWHE
Kd: 221 nM
